Assays:
[1] = target: GST-rat α2 I domain fusion protein (rat); assay: SPR (Biacore 2000), antibody captured, GST-α2 I domain in solution
[2] = target: GST-rat α2 I domain fusion protein (rat); assay: Eu-TMC-2206 on immobilized GST-α2 I domain at 37 °C, Scatchard
[3] = target: human platelet α2β1 integrin (immobilized on microtiter plates) (human) (UniProt P17301); assay: competition with Eu-TMC-2206 on human platelet α2β1-coated plate
Chain of human platelet α2β1 integrin (immobilized on microtiter plates) (human) (P17301 30-1181 E534K limits assumed, chain 1 of 2): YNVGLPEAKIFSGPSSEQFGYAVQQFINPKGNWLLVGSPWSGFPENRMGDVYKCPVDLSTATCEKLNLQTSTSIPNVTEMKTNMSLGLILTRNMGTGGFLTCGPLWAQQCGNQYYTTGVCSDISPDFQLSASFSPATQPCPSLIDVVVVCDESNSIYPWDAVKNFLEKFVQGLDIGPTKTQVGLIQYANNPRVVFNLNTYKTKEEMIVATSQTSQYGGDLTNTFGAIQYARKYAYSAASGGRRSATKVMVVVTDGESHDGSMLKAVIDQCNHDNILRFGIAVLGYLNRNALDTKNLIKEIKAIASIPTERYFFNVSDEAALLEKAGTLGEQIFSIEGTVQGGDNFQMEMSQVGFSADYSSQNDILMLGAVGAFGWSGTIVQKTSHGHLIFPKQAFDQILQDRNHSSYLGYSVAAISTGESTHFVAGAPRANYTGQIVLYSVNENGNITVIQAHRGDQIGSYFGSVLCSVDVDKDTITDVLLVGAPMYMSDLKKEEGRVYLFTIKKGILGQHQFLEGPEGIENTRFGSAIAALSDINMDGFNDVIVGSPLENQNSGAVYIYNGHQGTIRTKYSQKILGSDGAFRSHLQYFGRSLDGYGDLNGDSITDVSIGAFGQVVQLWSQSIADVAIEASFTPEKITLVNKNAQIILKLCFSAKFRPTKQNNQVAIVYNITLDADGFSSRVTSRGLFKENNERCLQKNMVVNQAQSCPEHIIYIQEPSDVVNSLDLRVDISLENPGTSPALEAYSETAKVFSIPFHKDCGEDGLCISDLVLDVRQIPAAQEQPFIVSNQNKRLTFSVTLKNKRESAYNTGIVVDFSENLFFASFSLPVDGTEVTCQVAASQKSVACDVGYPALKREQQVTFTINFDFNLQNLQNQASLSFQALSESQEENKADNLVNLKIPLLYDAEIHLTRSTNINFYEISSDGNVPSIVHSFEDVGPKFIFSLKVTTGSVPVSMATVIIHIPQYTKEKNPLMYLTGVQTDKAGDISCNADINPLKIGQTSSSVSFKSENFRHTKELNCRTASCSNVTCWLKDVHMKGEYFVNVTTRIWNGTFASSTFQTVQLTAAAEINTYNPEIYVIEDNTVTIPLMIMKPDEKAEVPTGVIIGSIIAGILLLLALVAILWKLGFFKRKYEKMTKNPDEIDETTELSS
Chain of human platelet α2β1 integrin (immobilized on microtiter plates) (human) (chain, as listed by the source limits assumed, chain 2 of 2): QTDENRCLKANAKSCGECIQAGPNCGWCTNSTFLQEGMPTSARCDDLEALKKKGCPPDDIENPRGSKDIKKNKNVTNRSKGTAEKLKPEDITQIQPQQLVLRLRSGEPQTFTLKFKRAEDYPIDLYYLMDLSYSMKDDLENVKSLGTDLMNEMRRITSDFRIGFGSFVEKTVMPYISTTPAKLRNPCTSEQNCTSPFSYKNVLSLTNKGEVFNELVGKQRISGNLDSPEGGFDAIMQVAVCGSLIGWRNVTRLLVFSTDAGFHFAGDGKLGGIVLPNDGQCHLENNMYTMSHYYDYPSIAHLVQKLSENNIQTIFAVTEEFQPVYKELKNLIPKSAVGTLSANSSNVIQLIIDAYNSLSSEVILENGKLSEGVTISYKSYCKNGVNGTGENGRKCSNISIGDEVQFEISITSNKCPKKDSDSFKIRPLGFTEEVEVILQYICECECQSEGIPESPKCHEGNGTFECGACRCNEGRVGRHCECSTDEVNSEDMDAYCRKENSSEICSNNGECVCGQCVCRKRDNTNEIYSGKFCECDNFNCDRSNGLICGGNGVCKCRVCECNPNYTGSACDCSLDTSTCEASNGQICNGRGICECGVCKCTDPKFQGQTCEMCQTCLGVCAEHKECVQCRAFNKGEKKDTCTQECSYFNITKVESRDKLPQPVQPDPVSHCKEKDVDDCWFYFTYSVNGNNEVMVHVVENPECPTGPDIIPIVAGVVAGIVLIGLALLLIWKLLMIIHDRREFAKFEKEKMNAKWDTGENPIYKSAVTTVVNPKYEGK

B1: TMC-2206 (antibody, mouse IgG1, V domains shown)
VH: QVQLKESGPGLVAPSQSLSITCTVSGFSLTNYGIHWVRQPPGKGLEWLGVIWARGFTNYNSALMSRLIITKDNSQSQVFLKMNSLQPDDSATYFCARANDGVYYAMDYWGQGTSVTVSS
VL: QFVLTQSPAFLSASPGEKVTMTCSANSSVNYIHWYQQKSGTSPKKWIYDTSKLASGVPVRFSGSGSGTSYSLTISSMETEDAATYYCQQWTTNPLTFGAGTRVELK
A Kd [1] of 2 nM, a koff [1] of 0.00082 s⁻¹ and a kon [1] of 420000 M⁻¹ s⁻¹ were found for B1 in this work. The Kd [2] was 1.3 nM and the fold decrease compared to human α2 I domain [2] was 6 fold.

B2: TMC-2206 VH D100A variant antibody (antibody, part only; not given: Light chain, constant regions, V domains shown, part only)
VH: QVQLKESGPGLVAPSQSLSITCTVSGFSLTNYGIHWVRQPPGKGLEWLGVIWARGFTNYNSALMSRLIITKDNSQSQVFLKMNSLQPDDSATYFCARANAGVYYAMDYWGQGTSVTVSS
A fold shift in potency relative to the mouse-human chimeric TMC-2206 antibody [3] greater than 1600 fold was found for B2 in this work.
